Experimental data reported in EP4596580A1 (Staidson (Beijing) Biopharmaceuticals Co., Ltd., dated 2025).
Read-outs that look alike come from different tables or passages of the source.

T1: His-human LIGHT (human)
T1 chain: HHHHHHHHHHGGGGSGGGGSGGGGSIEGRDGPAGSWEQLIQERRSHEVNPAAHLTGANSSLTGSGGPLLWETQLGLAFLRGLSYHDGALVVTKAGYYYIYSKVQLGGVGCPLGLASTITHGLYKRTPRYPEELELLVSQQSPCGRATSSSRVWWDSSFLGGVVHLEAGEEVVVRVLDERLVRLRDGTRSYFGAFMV

T2: His-cynomolgus monkey LIGHT (cynomolgus monkey)
T2 construct: also called His-cynoLIGHT
T2 chain: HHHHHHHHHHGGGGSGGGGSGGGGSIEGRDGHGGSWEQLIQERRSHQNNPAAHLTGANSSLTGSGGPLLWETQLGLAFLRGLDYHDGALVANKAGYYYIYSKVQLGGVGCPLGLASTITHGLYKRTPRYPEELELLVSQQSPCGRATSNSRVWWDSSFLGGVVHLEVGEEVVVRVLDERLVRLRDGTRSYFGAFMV

T3: His-mouse LIGHT (mouse)
T3 construct: also called His-musLIGHT
T3 chain: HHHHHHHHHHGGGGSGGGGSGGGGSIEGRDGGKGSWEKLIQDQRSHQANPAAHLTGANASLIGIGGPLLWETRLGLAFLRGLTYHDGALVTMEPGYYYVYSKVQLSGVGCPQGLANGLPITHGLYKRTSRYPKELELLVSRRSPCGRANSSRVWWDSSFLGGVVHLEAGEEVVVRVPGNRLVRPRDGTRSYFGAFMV


How the values were obtained:
[1] = molecular target: T1, His-human LIGHT; test: cell-based or functional assay
[2] = molecular target: T4, hFc-human LIGHT (human); test: competition ELISA, LTβR-His coated, hFc-huLIGHT 1 µg/ml
T4 construct: also called hFc-huLIGHT

[3] = molecular target: T1, His-human LIGHT; test: ELISA, His-huLIGHT coated
[4] = molecular target: T1, His-human LIGHT; test: cell-based or functional assay
[5] = molecular target: T1, His-human LIGHT; test: cell-based or functional assay
[6] = molecular target: T5, LIGHT on the surface of HEK293-LIGHT stable cells (human, UniProt O43557 1-240); test: cell-based or functional assay
[7] = molecular target: T1, His-human LIGHT; test: cell-based or functional assay
[8] = molecular target: T2, His-cynomolgus monkey LIGHT; test: ELISA, His-cynoLIGHT coated
[9] = molecular target: T4, hFc-human LIGHT; test: competition ELISA, LTβR-His coated, hFc-huLIGHT added
[10] = molecular target: T4, hFc-human LIGHT; test: competition ELISA, HVEM-His coated, hFc-huLIGHT 1 µg/ml
[11] = molecular target: T2, His-cynomolgus monkey LIGHT; test: ELISA, His-cynoLIGHT coated
[12] = molecular target: T1, His-human LIGHT; test: SPR, Biacore 8K, antibody on CM5 chip
[13] = molecular target: T1, His-human LIGHT; test: cell-based or functional assay
[14] = molecular target: T4, hFc-human LIGHT; test: competition ELISA, LTβR-His coated, hFc-huLIGHT added; remark: listed apart in the source
[15] = molecular target: T1, His-human LIGHT; test: cell-based or functional assay
[16] = molecular target: T5, LIGHT on the surface of HEK293-LIGHT …; test: cell-based or functional assay; remark: listed apart in the source
[17] = molecular target: T1, His-human LIGHT; test: ELISA, His-huLIGHT coated
[18] = molecular target: T1, His-human LIGHT; test: ELISA, His-huLIGHT coated
[19] = molecular target: T3, His-mouse LIGHT; test: ELISA, His-musLIGHT coated
[20] = molecular target: T1, His-human LIGHT; test: cell-based or functional assay
[21] = molecular target: T4, hFc-human LIGHT; test: competition ELISA, LTβR-His coated, hFc-huLIGHT added; remark: listed apart in the source
[22] = molecular target: T1, His-human LIGHT; test: cell-based or functional assay
[23] = molecular target: T2, His-cynomolgus monkey LIGHT; test: ELISA, His-cynoLIGHT coated
[24] = molecular target: T5, LIGHT on the surface of HEK293-LIGHT …; test: cell-based or functional assay; remark: listed apart in the source
[25] = molecular target: T2, His-cynomolgus monkey LIGHT; test: ELISA, His-cynoLIGHT coated

Row | EC50 [3] [µg/mL] | IC50, HVEM NF-κB luciferase reporter (293T-HVEM-NF-κB-Luc), free LIGHT [7] [µg/mL] | IC50 [14] [nM] | EC50 [17] [nM] | EC50 [18] [nM] | binding result [19] | IC50, LTβR NF-κB luciferase reporter, free LIGHT [20] [nM] | IC50 [21] [nM] | IC50, HVEM NF-κB luciferase reporter, free LIGHT [22] [nM] | EC50 [23] [nM] | IC50, LTβR NF-κB luciferase reporter, HEK293-LIGHT cells [24] [nM] | Binder | also measured
1 | 0.0774 | 0.264 | – | – | – | – | – | – | – | – | – | LT-m37 (antibody, human IgG4, V domains shown) VH: QVQLKQSGAELVRPGTSVKVSCKASGYSFTGYFINWVKQSHGKSLEWIGRIYPYNVNTFYNQNFKGRATLTADKSSSTAHMELLSLTSEDSAVYYCGRGTHYYGSSGAMDYWGQGTSVTVSS VL: DILLTQSHKFMSTSVGDRVSITCKASQNVGTAVAWYQQKPGQSPKLLIYSASNRYTGVPDRFTGSGSGTDFTLTISNMQSEDLADYFCQQYSSYPYTFGGGTKLEIK | IC50, LIGHT induced MMP-9 production in BEAS-2B bronchial epithelial cells [1]: 0.359 µg/mL; IC50 ratio (IC50 of the antibody / IC50 of F19) [2]: 0.301; IC50, LTβR NF-κB luciferase reporter, free LIGHT [4]: 0.257 nM; IC50, HVEM NF-κB luciferase reporter, free LIGHT [5]: 0.402 nM; IC50, LTβR NF-κB luciferase reporter, HEK293-LIGHT cells [6]: 2.28 nM; EC50 [8]: 0.157 nM; IC50 [9]: 0.866 nM; IC50 ratio (IC50 of the antibody / IC50 of F19) [10]: 0.435
2 | 0.0256 | 0.105 | – | – | – | – | – | – | – | – | – | LT-m31 (antibody, human IgG4, V domains shown) VH: QIQLLQSGPELEKPGETVKISCKASGYTFTNYGMNWVKQAPGKGLKWMGWINTYTGEPTYADDFKGRFAFSLETSASTAYLQINNLKNEDTATYFCARDNWDGKGMDYWGQGTSVTVSS VL: DIVLTQSPKFMSTSVGDRVSITCKASQDVDTAVAWYQQKPGHSPKLLLYWASTRHTGVPDRFTGSGSGTDFTLTISNVQSEDLADYFCHQYGSYPLTFGAGTKLELK | binding result [11]: binds; Kd [12]: 0.0395 nM; koff [12]: 4.03e-05 s⁻¹; kon [12]: 1.02e+06 M⁻¹ s⁻¹
3 | – | – | 0.291 | 0.0141 | – | – | – | – | – | – | – | hum_LT-m58-1 (antibody, human IgG4, V domains shown, humanized from LT-m58) VH: QVQLVQSGAEVKKPGASVKVSCKASGYTFIDHIMNWVRKAPGQGLEWMGRIYPVSGETNYNQKFMGRATFTVDRSTSTVYMELSSLRSEDTAVYYCGRGSYYWNAMDYWGQGTLVTVSS VL: EIVMTQSPATLSVSPGERATLSCKASQSVDFDGDSYMNWYQQKPGQPPRLLIYSASNLESGIPARFSGSGSGTEFTLTISSLQSEDFAVYYCQQSIEDPWTFGQGTKLEIK | IC50, LTβR NF-κB luciferase reporter, free LIGHT [13]: 0.183 nM; IC50, HVEM NF-κB luciferase reporter, free LIGHT [15]: 0.0933 nM; IC50, LTβR NF-κB luciferase reporter, HEK293-LIGHT cells [16]: 8.06 nM
4 | – | – | – | – | 0.0127 | no binding | 0.253 | 0.308 | 0.454 | 0.0033 | 2.56 | hum_LT-m85-4 (antibody, human IgG4, V domains shown, humanized from LT-m85) VH: QVQLVQSGAEVKKPGASVKVSCKASGYTFTSYNVHWVRQAPGQGLEWIGAVYPGNGDTSYNQKFKGRATLTADKSTSTAYMELSSLRSEDTAVYYCARGSYYYTSSYFDHWGQGTLVTVSS VL: EIVMTQSPATLSVSPGERATLSCKASQSVDFDGDSYMNWYQQKPGQAPRLLIYTASNLESGIPARFSGSGSGTEFTLTISSLQSEDFAVYYCQQSYEDPFTFGQGTKLEIK | –
5 | – | – | 0.628 | 0.0349 | – | no binding | – | – | – | – | – | hum_LT-m58-6 (antibody, human IgG4, V domains shown, humanized from LT-m58) VH: QVQLVQSGAEVKKPGASVKVSCKASGYTFIDHIMNWVRKAPGQGLEWMGRIYPVSGETNYNQKFMGRATFTVDRSTSTVYMELSSLRSEDTAVYYCGRGSYYWNAMDYWGQGTLVTVSS VL: DIVMTQSPDSLAVSLGERATINCKASQSVDFDGESYMNWYQQKPGQPPKLLIYSASNLESGVPDRFSGSGSGTDFTLTISSLQAEDVAVYYCQQSIEDPWTFGQGTKVEIK | EC50 [25]: 0.00258 nM
6 | – | – | – | – | 0.0123 | no binding | 0.649 | 0.274 | 0.33 | 0.0089 | 4.24 | hum_LT-m85-1 (antibody, human IgG4, V domains shown, humanized from LT-m85) VH: QVQLVQSGAEVKKPGASVKVSCKASGYTFTSYNVHWVRQAPGQGLEWIGAVYPGNGDTSYNQKFKGRATLTADKSTSTVYMELSSLRSEDTAVYYCARGSYYYTSSYFDHWGQGTLVTVSS VL: EIVLTQSPATLSVSPGERATLSCKASQSVDFDGDSYMNWYQQKPGQPPRLLIYTASNLESGIPARFSGSGSGTEFTLTISSLQSEDFAVYYCQQSYEDPFTFGQGTKLEIK | –
7 | – | – | – | – | 0.0131 | no binding | 0.0613 | 0.265 | 0.209 | 0.0142 | 6.02 | hum_LT-m85-2 (antibody, human IgG4, V domains shown, humanized from LT-m85) VH: QVQLVQSGAEVKKPGASVKVSCKASGYTFTSYNVHWVRQAPGQGLEWMGAVYPGNGDTSYNQKFKGRATLTADKSTSTAYMELSSLRSEDTAVYYCARGSYYYTSSYFDHWGQGTLVTVSS VL: EIVMTQSPATLSVSPGERATLSCKASQSVDFDGDSYMNWYQQKPGQPPRLLIYTASNLESGIPARFSGSGSGTEFTLTISSLQSEDFAVYYCQQSYEDPFTFGQGTKLEIK | –
8 | – | – | 0.746 | 0.0305 | – | no binding | – | – | – | – | – | hum_LT-m58-5 (antibody, human IgG4, V domains shown, humanized from LT-m58) VH: QVQLVQSGAEVKKPGASVKVSCKASGYTFIDHIMNWVRKAPGQGLEWIGRIYPVSGETNYNQKFMGRVTFTVDRSTSTVYMELSSLRSEDTAVYYCGRGSYYWNAMDYWGQGTLVTVSS VL: EIVMTQSPATLSVSPGERATLSCKASQSVDFDGESYMNWYQQKPGQAPRLLIYSASNLESGIPARFSGSGSGTEFTLTISSLQSEDFAVYYCQQSIEDPWTFGQGTKVEIK | EC50 [25]: 0.00443 nM
9 | – | – | 0.258 | 0.0154 | – | – | – | – | – | – | – | hum_LT-m58-2 (antibody, human IgG4, V domains shown, humanized from LT-m58) VH: QVQLVQSGAEVKKPGASVKVSCKASGYTFIDHIMNWVRKAPGQGLEWIGRIYPVSGETNYNQKFMGRVTFTVDRSTSTVYMELSSLRSEDTAVYYCGRGSYYWNAMDYWGQGTLVTVSS VL: EIVMTQSPATLSVSPGERATLSCKASQSVDFDGDSYMNWYQQKPGQAPRLLIYSASNLESGIPARFSGSGSGTEFTLTISSLQSEDFAVYYCQQSIEDPWTFGQGTKVEIK | IC50, LTβR NF-κB luciferase reporter, free LIGHT [13]: 0.135 nM; IC50, HVEM NF-κB luciferase reporter, free LIGHT [15]: 0.199 nM; IC50, LTβR NF-κB luciferase reporter, HEK293-LIGHT cells [16]: 5.91 nM
10 | 0.0221 | 0.207 | – | – | – | – | – | – | – | – | – | LT-m33 (antibody, human IgG4, V domains shown) VH: QVQLKQSGAELVKPGASVRLSCKTSGYTFTNYYVYWVKQRPGQGLEWIGEINPTNGDPNFNEKFKSKATLTVDKSSSTAYMHLSSLTSEDSAVYYCTRSNWDYGNAMDFWGQGTSVTVSS VL: DIVMTQSPASLAVSLGQRATISCKASQSVDFDGDGYMNWYQQKPGQPPKLLIYKASHLDSGIPARFSGSGSGTDFTLNIHPVEEEDAATYYCQQSIEDPLTFGDGTRLEIK | binding result [11]: binds; Kd [12]: 0.0235 nM; koff [12]: 4.07e-05 s⁻¹; kon [12]: 1.73e+06 M⁻¹ s⁻¹
